Data on 11 substances can be found in IntAct's records for PubMed 25910212.

Targets include tfcp2_human TFCP2 (UniProt Q12800); trip6_human TRIP6 (UniProt Q15654); lzts2_human LZTS2 (UniProt Q9BRK4); mdfi_human MDFI (UniProt Q99750); kra32_human KRTAP3-2 (UniProt Q9BYR7); kxdl1_human KXD1 (UniProt Q9BQD3); syce1_human SYCE1 (UniProt Q8N0S2); tfpt_human TFPT (UniProt P0C1Z6); md1l1_human MAD1L1 (UniProt Q9Y6D9); goga2_human GOLGA2 (UniProt Q08379).
The target in test [1] is cap2_human CAP2 (UniProt P40123).
Test [2] has as its target cof2_human CFL2 (UniProt Q9Y281).
Test [3] deals with cap2_human CAP2 (UniProt P40123). This is another data set of the same source.
For test [4], the target named is cof2_human CFL2 (UniProt Q9Y281). The source holds these as a separate data set.
The target of test [5] is cap2_human CAP2 (UniProt P40123). This is another data set of the same source.
A further test concerns the target T1, SYNE4, Q8N205-2.
T1 sequence: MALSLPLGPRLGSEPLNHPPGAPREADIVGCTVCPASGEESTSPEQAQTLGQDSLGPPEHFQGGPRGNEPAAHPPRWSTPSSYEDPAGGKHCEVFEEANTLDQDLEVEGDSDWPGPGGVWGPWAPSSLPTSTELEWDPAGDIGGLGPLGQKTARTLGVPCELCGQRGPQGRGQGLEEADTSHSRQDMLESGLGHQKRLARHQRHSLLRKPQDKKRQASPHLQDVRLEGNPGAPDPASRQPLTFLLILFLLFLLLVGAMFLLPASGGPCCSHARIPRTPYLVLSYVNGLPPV

Test [6] has as its target T2, tmm79_human TMEM79 (UniProt Q9BSE2).
T2 sequence: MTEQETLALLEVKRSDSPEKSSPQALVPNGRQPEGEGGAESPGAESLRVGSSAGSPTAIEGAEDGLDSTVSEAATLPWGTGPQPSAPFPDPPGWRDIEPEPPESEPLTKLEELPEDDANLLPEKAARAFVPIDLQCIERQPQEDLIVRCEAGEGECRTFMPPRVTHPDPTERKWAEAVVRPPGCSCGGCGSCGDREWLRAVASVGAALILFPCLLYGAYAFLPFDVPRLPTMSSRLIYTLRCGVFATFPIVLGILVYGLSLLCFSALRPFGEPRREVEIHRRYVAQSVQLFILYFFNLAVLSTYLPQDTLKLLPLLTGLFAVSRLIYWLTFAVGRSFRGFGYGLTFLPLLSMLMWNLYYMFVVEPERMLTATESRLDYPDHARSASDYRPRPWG

Test [7] addresses T3, smim3_human SMIM3 (UniProt Q9BZL3).
T3 sequence: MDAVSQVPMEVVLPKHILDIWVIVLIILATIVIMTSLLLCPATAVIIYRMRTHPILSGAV

Test [8] deals with T2, tmm79_human TMEM79. This is another data set of the same source.
Test [9] concerns the target T3, smim3_human SMIM3. This is another data set of the same source.
In test [10] the target is ifit3_human IFIT3 (UniProt O14879).
Test [11] has the same target. This is another data set of the same source.
The target of a further test is T4, efhc2_human EFHC2 (UniProt Q5JST6).
T4 sequence: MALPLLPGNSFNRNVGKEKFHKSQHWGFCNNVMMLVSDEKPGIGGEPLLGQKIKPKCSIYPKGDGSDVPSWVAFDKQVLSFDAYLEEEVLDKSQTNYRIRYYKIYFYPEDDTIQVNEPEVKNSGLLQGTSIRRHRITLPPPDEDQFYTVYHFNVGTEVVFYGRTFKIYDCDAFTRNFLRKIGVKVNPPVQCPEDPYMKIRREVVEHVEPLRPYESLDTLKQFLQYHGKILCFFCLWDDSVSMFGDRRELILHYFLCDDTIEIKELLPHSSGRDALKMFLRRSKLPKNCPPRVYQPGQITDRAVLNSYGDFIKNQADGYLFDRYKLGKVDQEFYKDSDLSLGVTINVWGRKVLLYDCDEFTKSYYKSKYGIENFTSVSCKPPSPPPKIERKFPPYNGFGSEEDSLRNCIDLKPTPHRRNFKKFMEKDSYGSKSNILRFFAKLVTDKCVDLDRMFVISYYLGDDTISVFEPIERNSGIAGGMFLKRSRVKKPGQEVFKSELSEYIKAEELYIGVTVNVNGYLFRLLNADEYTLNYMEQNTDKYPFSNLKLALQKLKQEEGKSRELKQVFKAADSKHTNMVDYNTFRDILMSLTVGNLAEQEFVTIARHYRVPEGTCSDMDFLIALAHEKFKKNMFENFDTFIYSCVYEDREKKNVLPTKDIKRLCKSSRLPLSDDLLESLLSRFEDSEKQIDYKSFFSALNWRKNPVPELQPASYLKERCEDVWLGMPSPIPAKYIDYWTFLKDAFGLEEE

Sequence of Tropomyosin alpha-1 chain (Homo sapiens), P09493-10 E40K (P09493 other isoform, or with tags, fused parts or gaps E40K): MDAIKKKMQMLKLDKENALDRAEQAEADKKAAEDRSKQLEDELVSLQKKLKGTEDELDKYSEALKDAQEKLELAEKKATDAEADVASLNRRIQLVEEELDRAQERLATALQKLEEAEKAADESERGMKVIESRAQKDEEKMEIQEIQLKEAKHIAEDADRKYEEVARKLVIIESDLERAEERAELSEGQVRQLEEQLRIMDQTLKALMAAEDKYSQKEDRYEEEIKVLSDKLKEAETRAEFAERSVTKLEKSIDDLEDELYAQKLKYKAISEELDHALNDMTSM
Sequence of Erythroid transcription factor (Homo sapiens), P15976-2 V205M (P15976 other isoform, or with tags, fused parts or gaps V205M): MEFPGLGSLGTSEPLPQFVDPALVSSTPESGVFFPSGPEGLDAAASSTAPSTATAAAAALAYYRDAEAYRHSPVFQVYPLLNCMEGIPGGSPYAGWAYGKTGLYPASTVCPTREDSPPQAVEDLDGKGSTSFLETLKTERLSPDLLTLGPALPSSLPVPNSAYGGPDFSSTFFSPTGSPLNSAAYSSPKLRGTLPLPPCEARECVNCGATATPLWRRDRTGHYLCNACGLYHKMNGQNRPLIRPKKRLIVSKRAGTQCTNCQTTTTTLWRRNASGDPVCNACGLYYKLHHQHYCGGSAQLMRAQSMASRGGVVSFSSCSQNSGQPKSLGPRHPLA
Sequence of ifit3_human IFIT3 (O14879 whole entry): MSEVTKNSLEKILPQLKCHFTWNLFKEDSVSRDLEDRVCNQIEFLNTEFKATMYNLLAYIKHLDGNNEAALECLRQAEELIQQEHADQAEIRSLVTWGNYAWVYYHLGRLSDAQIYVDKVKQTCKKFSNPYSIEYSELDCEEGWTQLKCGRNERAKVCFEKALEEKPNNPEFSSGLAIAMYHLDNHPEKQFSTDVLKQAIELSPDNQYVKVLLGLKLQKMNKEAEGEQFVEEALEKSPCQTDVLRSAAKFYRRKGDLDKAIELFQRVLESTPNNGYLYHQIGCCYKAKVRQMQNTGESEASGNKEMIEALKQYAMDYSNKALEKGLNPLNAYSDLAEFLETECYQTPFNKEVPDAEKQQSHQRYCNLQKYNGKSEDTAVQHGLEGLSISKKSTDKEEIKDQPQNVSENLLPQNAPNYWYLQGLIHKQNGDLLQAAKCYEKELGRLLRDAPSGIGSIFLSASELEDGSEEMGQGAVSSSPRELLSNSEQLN
Sequence of tfcp2_human TFCP2 (Q12800 whole entry): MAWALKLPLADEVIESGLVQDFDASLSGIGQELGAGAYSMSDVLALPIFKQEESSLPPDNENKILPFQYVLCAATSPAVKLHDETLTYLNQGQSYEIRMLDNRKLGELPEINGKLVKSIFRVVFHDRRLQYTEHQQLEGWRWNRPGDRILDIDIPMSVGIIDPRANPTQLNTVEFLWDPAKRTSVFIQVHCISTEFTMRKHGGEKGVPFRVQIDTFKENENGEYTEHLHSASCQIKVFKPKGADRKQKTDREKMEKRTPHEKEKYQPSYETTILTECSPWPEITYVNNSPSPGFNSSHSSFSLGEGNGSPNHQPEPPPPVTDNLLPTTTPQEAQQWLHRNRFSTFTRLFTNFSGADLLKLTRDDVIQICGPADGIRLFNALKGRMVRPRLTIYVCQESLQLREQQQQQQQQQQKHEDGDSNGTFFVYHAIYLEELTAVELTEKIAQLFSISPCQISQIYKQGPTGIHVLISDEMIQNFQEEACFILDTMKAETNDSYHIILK
Sequence of TNNT1, P13805-3 (P13805 other isoform, or with tags, fused parts or gaps): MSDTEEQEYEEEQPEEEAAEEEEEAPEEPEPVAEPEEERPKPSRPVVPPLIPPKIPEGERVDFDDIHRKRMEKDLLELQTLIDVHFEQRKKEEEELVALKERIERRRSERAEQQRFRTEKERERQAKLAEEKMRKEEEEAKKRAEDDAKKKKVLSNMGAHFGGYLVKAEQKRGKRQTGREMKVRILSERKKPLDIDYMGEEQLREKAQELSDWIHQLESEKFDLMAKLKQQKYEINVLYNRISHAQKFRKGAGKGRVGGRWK
Sequence of CAGE1, Q8TC20-4 (Q8TC20 other isoform, or with tags, fused parts or gaps): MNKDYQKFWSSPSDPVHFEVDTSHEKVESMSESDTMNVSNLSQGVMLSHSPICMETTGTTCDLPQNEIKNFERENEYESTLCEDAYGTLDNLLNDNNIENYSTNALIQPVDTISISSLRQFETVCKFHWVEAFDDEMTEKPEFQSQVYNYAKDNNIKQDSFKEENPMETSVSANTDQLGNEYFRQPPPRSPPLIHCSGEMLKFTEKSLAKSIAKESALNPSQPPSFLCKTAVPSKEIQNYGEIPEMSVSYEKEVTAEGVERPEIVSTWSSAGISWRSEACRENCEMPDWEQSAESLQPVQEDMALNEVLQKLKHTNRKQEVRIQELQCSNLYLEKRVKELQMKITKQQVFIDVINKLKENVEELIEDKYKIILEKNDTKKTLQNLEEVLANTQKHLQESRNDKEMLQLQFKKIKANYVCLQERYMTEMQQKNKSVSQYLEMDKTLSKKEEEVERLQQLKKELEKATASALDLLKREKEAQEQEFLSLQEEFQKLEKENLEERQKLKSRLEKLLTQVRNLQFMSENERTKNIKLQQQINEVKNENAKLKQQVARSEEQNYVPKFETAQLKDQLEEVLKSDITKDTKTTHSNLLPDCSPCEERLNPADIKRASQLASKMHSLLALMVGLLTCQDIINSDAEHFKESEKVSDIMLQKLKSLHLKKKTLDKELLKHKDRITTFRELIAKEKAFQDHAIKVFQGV
Sequence of tfpt_human TFPT (P0C1Z6 whole entry): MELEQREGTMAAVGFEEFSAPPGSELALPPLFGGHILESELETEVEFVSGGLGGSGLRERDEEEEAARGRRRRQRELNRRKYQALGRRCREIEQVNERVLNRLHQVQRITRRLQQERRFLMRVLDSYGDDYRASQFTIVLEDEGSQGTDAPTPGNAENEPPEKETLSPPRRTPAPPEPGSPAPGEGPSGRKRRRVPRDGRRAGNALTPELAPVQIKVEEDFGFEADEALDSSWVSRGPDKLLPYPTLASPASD
Sequence of lzts2_human LZTS2 (Q9BRK4 whole entry): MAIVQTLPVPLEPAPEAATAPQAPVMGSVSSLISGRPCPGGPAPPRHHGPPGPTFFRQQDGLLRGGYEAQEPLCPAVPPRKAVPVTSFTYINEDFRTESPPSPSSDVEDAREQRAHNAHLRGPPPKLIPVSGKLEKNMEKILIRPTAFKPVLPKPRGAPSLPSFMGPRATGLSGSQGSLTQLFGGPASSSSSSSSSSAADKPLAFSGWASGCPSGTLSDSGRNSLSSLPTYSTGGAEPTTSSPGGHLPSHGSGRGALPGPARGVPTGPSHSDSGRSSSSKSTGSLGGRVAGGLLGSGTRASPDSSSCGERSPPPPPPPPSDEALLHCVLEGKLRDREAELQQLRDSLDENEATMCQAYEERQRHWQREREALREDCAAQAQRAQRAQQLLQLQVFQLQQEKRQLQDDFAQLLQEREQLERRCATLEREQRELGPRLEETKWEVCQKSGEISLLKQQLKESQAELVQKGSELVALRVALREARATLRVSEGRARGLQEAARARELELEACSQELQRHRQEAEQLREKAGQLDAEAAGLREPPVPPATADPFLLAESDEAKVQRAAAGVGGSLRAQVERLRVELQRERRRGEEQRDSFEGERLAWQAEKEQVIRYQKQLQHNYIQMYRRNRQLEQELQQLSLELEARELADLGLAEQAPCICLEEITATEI
Sequence of goga2_human GOLGA2 (Q08379 whole entry): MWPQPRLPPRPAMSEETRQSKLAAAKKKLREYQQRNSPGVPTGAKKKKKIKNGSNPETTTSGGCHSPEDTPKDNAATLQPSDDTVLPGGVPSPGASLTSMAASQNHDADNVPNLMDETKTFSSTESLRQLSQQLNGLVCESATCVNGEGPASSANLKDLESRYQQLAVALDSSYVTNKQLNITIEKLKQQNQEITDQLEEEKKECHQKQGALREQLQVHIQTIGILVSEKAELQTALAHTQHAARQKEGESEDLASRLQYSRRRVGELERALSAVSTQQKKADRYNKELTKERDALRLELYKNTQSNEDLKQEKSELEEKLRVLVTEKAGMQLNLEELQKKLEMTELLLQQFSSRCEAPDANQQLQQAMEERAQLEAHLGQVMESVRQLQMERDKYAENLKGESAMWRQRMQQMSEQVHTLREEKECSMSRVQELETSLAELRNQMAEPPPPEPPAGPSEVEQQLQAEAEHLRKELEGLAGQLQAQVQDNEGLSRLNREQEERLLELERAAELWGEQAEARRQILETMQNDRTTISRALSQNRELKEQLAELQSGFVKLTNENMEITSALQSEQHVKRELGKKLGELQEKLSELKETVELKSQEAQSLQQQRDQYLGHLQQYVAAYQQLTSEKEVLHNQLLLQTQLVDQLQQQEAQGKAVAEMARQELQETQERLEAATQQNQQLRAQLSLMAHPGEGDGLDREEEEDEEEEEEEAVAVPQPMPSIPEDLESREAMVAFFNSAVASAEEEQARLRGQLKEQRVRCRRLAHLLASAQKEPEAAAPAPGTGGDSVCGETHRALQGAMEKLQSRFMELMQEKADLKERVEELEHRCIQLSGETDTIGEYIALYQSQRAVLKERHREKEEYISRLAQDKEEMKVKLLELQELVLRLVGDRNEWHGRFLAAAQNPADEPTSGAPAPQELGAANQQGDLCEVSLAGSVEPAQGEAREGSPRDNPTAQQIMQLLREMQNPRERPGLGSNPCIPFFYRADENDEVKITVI
Sequence of kra32_human KRTAP3-2 (Q9BYR7 whole entry): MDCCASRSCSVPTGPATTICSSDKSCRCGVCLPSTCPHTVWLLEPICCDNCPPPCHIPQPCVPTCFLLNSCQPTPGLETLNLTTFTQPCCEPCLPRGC
Sequence of syce1_human SYCE1 (Q8N0S2 whole entry): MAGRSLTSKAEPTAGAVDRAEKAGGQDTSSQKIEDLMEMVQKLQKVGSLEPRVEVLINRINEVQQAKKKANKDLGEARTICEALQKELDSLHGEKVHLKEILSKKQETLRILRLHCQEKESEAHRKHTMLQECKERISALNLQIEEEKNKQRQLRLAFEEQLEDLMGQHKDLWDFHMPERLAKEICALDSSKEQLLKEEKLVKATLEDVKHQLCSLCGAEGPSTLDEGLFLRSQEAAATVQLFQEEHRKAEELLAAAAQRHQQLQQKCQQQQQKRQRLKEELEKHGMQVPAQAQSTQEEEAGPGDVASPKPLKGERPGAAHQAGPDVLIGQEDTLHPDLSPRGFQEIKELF

For the substance “Actin, cytoplasmic 1 (Homo sapiens) (from UniProt P60709) E364K”, the “effect of a mutation on the interaction” value in the test with cap2_human CAP2 [1] and with cof2_human CFL2 [2] was “disrupting interaction strength” in each case.

Take “Actin, cytoplasmic 2 (Homo sapiens) (from UniProt P63261) P264L”: the “effect of a mutation on the interaction” value with cap2_human CAP2 [3] is on record as “causing an interaction”; in the test with cof2_human CFL2 [4], “disrupting interaction strength”; with cap2_human CAP2 [5], “with no effect”.

Take “Actin, cytoplasmic 2 (Homo sapiens) (from UniProt P63261) T89I”: the “effect of a mutation on the interaction” value with cap2_human CAP2 [3] is given as “causing an interaction”; with cof2_human CFL2 [4] it was “with no effect”; with cap2_human CAP2 [5], “with no effect”.

With “Carbonic anhydrase 1 (Homo sapiens), P00915 H68R”, in the test with tfcp2_human TFCP2, the “effect of a mutation on the interaction” value is recorded as “with no effect”.

In the case of “Carbonic anhydrase 1 (Homo sapiens), P00915 R247H”, the “effect of a mutation on the interaction” value with tfcp2_human TFCP2 is on record as “with no effect”.

Take “Erythroid transcription factor (Homo sapiens), P15976-2 V205M”: the “effect of a mutation on the interaction” value with trip6_human TRIP6 is “with no effect”; with lzts2_human LZTS2, “disrupting interaction strength”; with mdfi_human MDFI, “with no effect”; in the test with kra32_human KRTAP3-2 it was “with no effect”.

On to “Surfactant protein C (Homo sapiens) (from UniProt P11686) C189G”, for which the “effect of a mutation on the interaction” value with SYNE4, Q8N205-2 is given as “with no effect”; with tmm79_human TMEM79 [6] it was “disrupting interaction strength”; with smim3_human SMIM3 [7], “causing an interaction”; with tmm79_human TMEM79 [8] it was “with no effect”; in the test with smim3_human SMIM3 [9] it was “with no effect”.

As for “Surfactant protein C (Homo sapiens) (from UniProt P11686) Y104H”, the “effect of a mutation on the interaction” value is given as “with no effect” with SYNE4, Q8N205-2; “disrupting interaction strength” with tmm79_human TMEM79 [6]; “causing an interaction” in the test with smim3_human SMIM3 [7]; “with no effect” in the test with tmm79_human TMEM79 [8]; “with no effect” with smim3_human SMIM3 [9].

Turning to “Tropomyosin alpha-1 chain (Homo sapiens), P09493-10 E40K”, the “effect of a mutation on the interaction” value with kxdl1_human KXD1 is “with no effect”; with TNNT1, P13805-3, “with no effect”; with ifit3_human IFIT3 [10] it was “causing an interaction”; with syce1_human SYCE1 it was “with no effect”; in the test with CAGE1, Q8TC20-4, “with no effect”; with tfpt_human TFPT, “with no effect”. In addition, the results for the “effect of a mutation on the interaction” value in the test with ifit3_human IFIT3 [11], in the test with md1l1_human MAD1L1 and with goga2_human GOLGA2 were “with no effect”, “with no effect” and “disrupting interaction strength”, respectively.

On to “Voltage-dependent L-type calcium channel subunit beta-4 (Homo sapiens) (from UniProt O00305) C104F”, for which, in the test with efhc2_human EFHC2, the “effect of a mutation on the interaction” value is “with no effect”.

“Voltage-dependent L-type calcium channel subunit beta-4 (Homo sapiens) (from UniProt O00305) R468Q”: the “effect of a mutation on the interaction” value in the test with efhc2_human EFHC2 is “with no effect”.
